Measurements published in publication PMC8363725, “Mapping the biosynthetic pathway of a hybrid polyketide-nonribosomal peptide in a metazoan” (Nature Communications, 2021).

T1: PKAL-1 (Caenorhabditis elegans, UniProt O02171)
T1 construct: PKAL-1 from C. elegans cDNA library in pET16b-KH01, C-terminal His tag, expressed in E. coli BL21(DE3), Ni resin and Superdex 200
T1 sequence (O02171 1-497): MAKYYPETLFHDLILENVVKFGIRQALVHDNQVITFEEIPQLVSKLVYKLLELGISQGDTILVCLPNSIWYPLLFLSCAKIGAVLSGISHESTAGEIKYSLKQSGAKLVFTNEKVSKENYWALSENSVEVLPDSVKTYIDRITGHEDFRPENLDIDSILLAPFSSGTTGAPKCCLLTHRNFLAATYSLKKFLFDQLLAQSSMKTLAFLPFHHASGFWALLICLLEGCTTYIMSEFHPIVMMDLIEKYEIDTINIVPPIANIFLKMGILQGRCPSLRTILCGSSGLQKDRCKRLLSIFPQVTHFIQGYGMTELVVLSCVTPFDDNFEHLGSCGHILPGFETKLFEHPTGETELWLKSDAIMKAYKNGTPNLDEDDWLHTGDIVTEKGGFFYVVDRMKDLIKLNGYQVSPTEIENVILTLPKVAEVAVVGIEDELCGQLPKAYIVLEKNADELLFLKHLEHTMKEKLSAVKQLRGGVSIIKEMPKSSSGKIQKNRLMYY


How the values were obtained:
PKAL-1 = target: T1, PKAL-1; assay: enzyme-coupled continuous spectrophotometric assay (NADH); type: biochemical; conditions: 4 mM ATP, 10 mM MgCl2, 100 mM hydroxylamine as acceptor, Tris pH 7.4, 22 °C; apparent
purified protein = substrate: CCCCCCCCCCCCCCCC(=O)O; assay: purified protein; conditions: 4 mM ATP, 10 mM MgCl2, 100 mM hydroxylamine as acceptor, Tris pH 7.4, 22 °C, apparent
[1] = substrate: CCCCCCCCCC(=O)O; assay: enzyme-coupled continuous spectrophotometric assay (NADH); type: biochemical, Caenorhabditis elegans; conditions: 4 mM ATP, 10 mM MgCl2, 100 mM hydroxylamine as acceptor, Tris pH 7.4, 22 °C, apparent
[2] = substrate: CCCCCCCCCCCC(=O)O; assay: as above; type: biochemical, Caenorhabditis elegans; conditions: 4 mM ATP, 10 mM MgCl2, 100 mM hydroxylamine as acceptor, Tris pH 7.4, 22 °C, apparent
[3] = substrate: CCCCCCCCCCCCCC(=O)O; assay: as above; type: biochemical, Caenorhabditis elegans; conditions: 4 mM ATP, 10 mM MgCl2, 100 mM hydroxylamine as acceptor, Tris pH 7.4, 22 °C, apparent

Row | Molecule | Km (PKAL-1) | Km (purified protein) [µM] | kcat (purified protein) [s⁻¹] | Km [1] [µM] | kcat [1] [s⁻¹] | Km [2] [µM] | kcat [2] [s⁻¹] | Km [3] [µM] | kcat [3] [s⁻¹]
1 | CCCCCCCC(=O)O [C8] | C12, which is in turn preferred over C10 and C8 |  |  |  |  |  |  |  | 
2 | PKAL-1 (Caenorhabditis elegans) (protein, PKAL-1 from C. elegans cDNA library in pET16b-KH01, C-terminal His tag, expressed in E. coli BL21(DE3), Ni resin and Superdex 200) MAKYYPETLFHDLILENVVKFGIRQALVHDNQVITFEEIPQLVSKLVYKLLELGISQGDTILVCLPNSIWYPLLFLSCAKIGAVLSGISHESTAGEIKYSLKQSGAKLVFTNEKVSKENYWALSENSVEVLPDSVKTYIDRITGHEDFRPENLDIDSILLAPFSSGTTGAPKCCLLTHRNFLAATYSLKKFLFDQLLAQSSMKTLAFLPFHHASGFWALLICLLEGCTTYIMSEFHPIVMMDLIEKYEIDTINIVPPIANIFLKMGILQGRCPSLRTILCGSSGLQKDRCKRLLSIFPQVTHFIQGYGMTELVVLSCVTPFDDNFEHLGSCGHILPGFETKLFEHPTGETELWLKSDAIMKAYKNGTPNLDEDDWLHTGDIVTEKGGFFYVVDRMKDLIKLNGYQVSPTEIENVILTLPKVAEVAVVGIEDELCGQLPKAYIVLEKNADELLFLKHLEHTMKEKLSAVKQLRGGVSIIKEMPKSSSGKIQKNRLMYY |  | 8.7 ± 0.4 | 0.0127 ± 0.000484 | 411.0 ± 20.2 | 0.0437 ± 0.00284 | 84.6 ± 17.5 | 0.00943 ± 0.00211 | 21.8 ± 2.6 | 0.03 ± 0.00223
